In US20210198328A1, “MODULATED CAS-INHIBITORS” (Universität Heidelberg, priority 2017, published 2021):

What was measured:
dCas9-VP64 = molecular target: T1, dCas9-VP64 (Streptococcus pyogenes serotype M1, UniProt Q99ZW2, D10A/N863A); assay: dCas9-VP64 luciferase reporter trans-activation assay; format: cell-based; conditions: HEK 293T
T1 construct: host or cells: HEK 293T
Experimental: HEK 293T cells were seeded into black, clear-bottom 96-well plates (Corning) at a density of ˜12.500 cells per well Twenty-four hours after seeding, cells were transfected according to the manufacturer's instructions using Lipofectamine® 2000 and Opti-MEM® reduced serum medium (Thermo Fisher). […]
(§1) Six h post-transfection, medium was replaced and the cells were illuminated with 460 nm pulsatile blue light (light intensity 2-3 W/m^2 as measured with a LI-COR LI-250A Light Meter, pulsatile illumination regime is indicated in figure legends) or kept in the dark under otherwise identical conditions for 32-42 h (indicated in figure legends). […] Subsequently, the luciferase activity was measured using the Dual-Glo luciferase assay kit (Promega) according to the manufacturer's protocol. In brief, the cells were lysed using the provided lysis buffer and tire activity of firefly and Renilla luciferase was quantified using a GLOMAX 96 Microplate Luminometer (Promega) with automated injectors (delay time 2 s, integration time 10 s). The relative luciferase activity was calculated by dividing the firefly luciferase photon counts by the Renilla luciferase photon counts. […]

HEK 293T cells = assay: Light-induced nuclear export, mCherry fluorescence imaging; format: cell-based, human
Experimental: FIG. 5: Induced nuclear export inhibits AcrIIA4 function. (A) Schematic of AcrIIA4 construct fused to mCherry-LEXY. LEXY, light-inducible nuclear export system; fusion polypeptide sequence is SEQ ID NO: 114 (encoded by SEQ ID NO: 74). (B) Fluorescence images of HEK 293T cells transfected with the construct in A. mCherry images were taken prior to induction (Preinduction), after 15 min of irradiation with blue light (Post Activation) and after an additional 20 min recovery phase in the absence of blue light (Post Recovery). (C) Line profile of the indicated cell in B, (D) Bar plot showing control of dCas9-VP64-mediated luciferase reporter activation by NLS-AcrIIA4-mCherry-LEXY. […]
To test whether sequestering AcrIIA4 away from the nucleus could be a possible mode for allosteric Acr control we employed a light-inducible nuclear export system (LEXY) previously reported (Niopek et al., 2016), which mediates the nuclear export of proteins fused to the LEXY domain (an AsLOV2-Nuclear Export Signal-Hybrid) in response to blue light. […] The nuclear mChcrry fluorescence fully recovered within 20 min when blue-light irradiation was stopped, showing that AcrIIA4 nuclear export was reversible (FIGS. 5B and Q.

SpyCas9 = molecular target: T2, SpyCas9 (Streptococcus pyogenes serotype M1, UniProt Q99ZW2); assay: Cas9 luciferase reporter cleavage assay (dual luciferase); format: cell-based; conditions: HEK 293T, 48 h post-transfection; for effect on Cas9-caused firefly luciferase knockdown (Cas9 inhibition): with or without N-terminal SV40 NLS
T2 construct: 2A-GFP (C); host or cells: HEK 293T
Experimental: HEK 293T cells were seeded into black, clear-bottom 96-well plates (Corning) at a density of ˜12.500 cells per well Twenty-four hours after seeding, cells were transfected according to the manufacturer's instructions using Lipofectamine® 2000 and Opti-MEM® reduced serum medium (Thermo Fisher).
For the dCas9-VP64 trans-activation assays, 50 ng/well of each, a plasmid encoding dCas9-VP64_GFP (Addgene plasmid #61422, kind gift from Feng Zhang), a tet-inducible firefly luciferase reporter (Addgene plasmid #64127, kind gift from Moritoshi Sato) and a TetO-targeting guide RNA vector (Addgene plasmid #64161, kind gift from Moritoshi Sato) were co-transfected alongside 1 ng/well pRL-TK (TK-driven Renilla expression vector for normalization; Promega) as well as 1-50 ng/well of the AcrIIA4 constructs and, optionally, stuffer DMA (pcDNA3.1(−) (Invitrogen)). For the reporter cleavage assay, a plasmid encoding an H1 promoter-driven guideRNA as well as firefly luciferase and Renilla luciferase was co-transfected alongside Cas9 expression vector pSpCas9(BB)-2A-GFP (PX453; Addgene plasmid #48138, kind gift from Feng Zhang) as weft as the corresponding AcrIIA4 variant (50 ng/well each). […]
as §1

Cas9 = molecular target: T3, Cas9 (Streptococcus pyogenes serotype M1, UniProt Q99ZW2); assay: T7 endonuclease assay, CFTR locus editing; format: cell-based; conditions: HEK 293T
T3 construct: expressed in transfected cells; host or cells: HEK 293T
Experimental: HEK 293T cells were seeded into transparent 96-well plates (Coming). […] Sixteen It post-transfection, cells were irradiated with blue light (7 s ON, 7 s OFF, 3 W/m^2) for 32 h or kept in the dark as control. Subsequently, cells were washed with PBS and lysed using the DirectPCR lysis reagent (PcqLab). A fragment spanning the edited part of the CFTR locus was PCR-amplified using Q5 polymerase and the following primers: CFTR_fw: 5′-[…]-3′, SEQ ID NO: 30; CFTR_re: 5′-[…]-3′, SEQ ID NO: 31). The PCR reaction was run on an agarose gel and the amplicon was purified using a QIAGEN Gel Extraction Kit. Two hundred ng of PCR diluted in 19.5 μl 1× NEB Buffer 2 were then healed up to 95° C. followed by re-annealing in a thermocycler. Next, 0.5 μl of T7 Endonuclease (NEB) were added, and the reaction was incubated at 37° C. for 15 min and then stopped by adding EDTA-containing gel loading dye. Lastly, T7 reactions were analyzed on a 2% agarose gel stained with GelRed (Biotium, Inc.).

## NLS-AcrIIA4-mCherry-LEXY: NLS-tagged AcrIIA4 fused to mCherry and light-inducible nuclear export system LEXY; SEQ ID NO: 114
dCas9-VP64; blue light vs dark, dose-dependent
  dCas9-VP64-mediated luciferase reporter induction upon light-induced nuclear export: noticeable increase
HEK 293T cells
  time to full recovery of nuclear mCherry fluorescence after blue-light irradiation was stopped: ≤ 20 min
HEK 293T cells; 15 min blue light
  nuclear mCherry fluorescence upon blue-light irradiation: fast and strong decrease

## construct 1: LOV2 inserted between AcrIIA4 residues E66/Y67, no linkers; SEQ ID NO: 88
SpyCas9; LOV2 insertion screen at 41 positions
  Cas9 inhibition in the absence of blue light: highest
Cas9; Cas9:AcrIIA4 construct 1:1, dark
  Cas9 inhibition in the dark (CFTR locus editing): no significant
Cas9; Cas9:AcrIIA4 construct 1:4, blue light 32 h or dark
  light-dependent Cas9 inhibition (CFTR locus editing light vs dark): inhibited Cas9 in a light-dependent manner
Cas9; Cas9:AcrIIA4 construct 1:4, dark
  Cas9 block in the dark (CFTR editing in dark sample): did not fully block Cas9

## cMyc^PIA NLS-mCherry-AcrIIA4
dCas9-VP64; 48 h post-transfection
  AcrIIA4 activity due to nuclear targeting (dCas9-VP64 inhibition): boost in AcrIIA4 activity

## AcrIIA4: anti-CRISPR polypeptide of a Listeria monocytogenes prophage, SEQ ID NO: 1 [reference compound]
SpyCas9
  effect on Cas9-caused firefly luciferase knockdown (Cas9 inhibition): strongly reduced

## SV40 NLS-AcrIIA4: N-terminal SV40 NLS fusion to AcrIIA4; SEQ ID NO: 115
SpyCas9
  effect on Cas9-caused firefly luciferase knockdown (Cas9 inhibition): full recovery of the luciferase reporter signal
